In this experiment the target is Bluetongue virus serotype 1 (BTV-1) outer capsid protein VP2. Description: Co-IP with anti-NS3 antibody, densitometry of VP2 band. The settings on record: parent: est. 1.0; read off a plot.

Turning to “Bluetongue virus serotype 1 (BTV-1) non-structural glycoprotein NS3, wild type K196A; K197A; E198A”, the ratio to parent (relative fold change) was found to be 0.56.
As for “Bluetongue virus serotype 1 (BTV-1) non-structural glycoprotein NS3, wild type N150A”, the ratio to parent (relative fold change) was 0.61.

The values above are taken from paper PMC12578325.
